According to patent US20220282217A1 (BIONTECH US, published 2022):

B1: PLSDLLLEML (peptide)
peptide: PLSDLLLEML
notes: also called E5R1, Y537S (so in the source); ESR1, Y537S
B2: ALEEKKGNYV (peptide)
peptide: ALEEKKGNYV
notes: also called EGFRvIII (internal deletion)
B3: … (peptide)
peptide: LQMDFLVHPA
notes: likely a print error; also called APC, VHPA

Molecular target: T1, HLA class I molecule A02.01
T1 construct: Purified MHC class I complex; also called HLA-A02:01
Experiment: competition with radiolabeled reference peptide on purified MHC I
Procedure: (§1) Peptides were incubated at varying concentrations with these complexes for 2 days, and the amount of remaining radiolabeled peptide bound to […] was measured using size exclusion gel-filtration.

Binder	IC50 [nM]
ALAPTLTHM (also called MLL2, . . ; LSPH)	59
FLLALWECS (also called MSH3(-1))	93.2
ITAFFFCWI (also called NDUFC2 (-KCDT14)(+1))	7490
ALAPTLTHML (also called MLL2, . . ; LSPH)	39
LIVSRTLLLV (also called MSH3(-1))	10900
LQVTQTSFAL (also called MLL2, . . ; LSPH)	718
ITAFFLLDI (also called NDUFC2 (-KCDT14)(-1))	78.7
LLQVTQTSFA (also called MLL2, . . ; LSPH)	677
ILLPEDTPPL (also called MSH6(+1))	6.7
LLDILDTAGL (also called KRAS, Q61L)	716
VLPEPHLAL (also called GATA3 . . ; CSNH)	16
LLPEDTPPL (also called MSH6(+1))	2.8
ALWECSLPQA (also called MSH3(-1))	9
YITAFFLLDI (also called NDUFC2 (-KCDT14)(-1))	64.5
RLWHLLLQV (also called MLL2, . . ; LSPH)	1.3
RLWHLLLQVT (also called MLL2, . . ; LSPH)	50.9
AIQPVLWTT (also called GATA3 . . ; CSNH)	8.1
CLIVSRTLLL (also called MSH3(-1))	2010
IVSRTLLLV (also called MSH3(-1))	12.7

Molecular target: HLA-A02.01 (human)
Experiment: pMHC-I complex dissociation at 37 C, 125I-b2m, half-life
Procedure: (§2) Briefly, synthetic genes encoding biotinylated MHC-I heavy and light chains are expressed in E. coli and purified from inclusion bodies using standard methods. […] These reactions are carried out in streptavidin coated microplates to bind the biotinylated MHC-I heavy chains to the surface and allow measurement of radiolabeled light chain to monitor complex formation. Dissociation is initiated by addition of higher concentrations of unlabeled light-chain and incubation at 37° C. Stability is defined as the length of time in hours it takes for half of the complexes to dissociate, as measured by scintillation counts.

Binder	Stability (T1/2 (h)) [h]
PLCDLLLEML (also called ESR1, Y537C)	0.9
PLNDLLLEML (also called ESR1, Y537N)	0
B1	0
PLYGLLLEM (also called ESR1, D538G)	0.7
KVLQMDFLV (also called APC, VHPA)	6.4
GLLLEMLDA (also called ESR1, D538G)	0.4
KLGGGQHGEV (also called ABL1, Y253H)	0.4
VLLSVHLIV (also called APC, AVEW)	11
LMELMAGGDL (also called ALK, L1196M)	8.9
IIIEFMTYG (also called ABL1, T315I)	0
NVVPLYGLL (also called ESR1, D538G)	0
ILMELMAGGD (also called ALK, L1196M)	0
B2	0
GVYTFLPST (also called ESR1, S463P)	1.3
ILMELMAGG (also called ALK, L1196M)	0.5
IIEFMTYGNL (also called ABL1, T315I)	0
NVVPLCDLLL (also called ESR1, Y537C)	0

Binder	Stability (T1/2 (h)) [h]
NVVPLSDLLL (also called ESR1, Y537S)	0
NVVPLNDLLL (also called ESR1, Y537N)	0
VLTVTSTDV (also called FGFR3: TACC3)	1.1
NVVPLCDLL (also called ESR1, Y537C)	0
NVVPLSDLL (also called ESR1, Y537S)	0
NVVPLNDLL (also called ESR1, Y537N)	0
CLADVLLSV (also called APC, AVEW)	24
PLCDLLLEM (also called ESR1, Y537C)	0.8
PLSDLLLEM (also called ESR1, Y537S)	2.7
PLNDLLLEM (also called ESR1, Y537N)	4.2
YIIIEFMTYG (also called ABL1, T315I)	0
FILMELMAGG (also called ALK, L1196M)	0
TQISSATEYL (also called ABL1, M351T)	0
IIIEFMTYGN (also called ABL1, T315I)	0
LIMQLMPFGC (also called EGFR, T790M)	0.4
B3	1.5

Molecular target: HLA-A02.01 (human)
Experiment: competition vs radiolabeled reference peptide on purified MHC I, gel filtration
Procedure: as §1

Binder	IC50 [nM]
FLSSWDYRRM (also called C15ORF40(+1))	324
FFFETKSCSV (also called C15ORF40(+1))	61.2
PLCDLLLEML (also called ESR1, Y537C)	2010
PLNDLLLEML (also called ESR1, Y537N)	12000
B1	6470
PLYGLLLEM (also called ESR1, D538G)	640
KVLQMDFLV (also called APC, VHPA)	11
VQWRSLGSL (also called C15ORF40(+1))	4730
GLLLEMLDA (also called ESR1, D538G)	558
KQWSSVTSL (also called EIF2B3(-1))	26.5
KLGGGQHGEV (also called ABL1, Y253H)	387
ILIRKAMTV (also called EPHB2(-1))	19.5
VLLSVHLIV (also called APC, AVEW)	72
GLSISCTTL (also called β2M, . . ; MPAV)	114
VLQRFRFTHV (also called β2M, . . ; SQIS)	107
LMELMAGGDL (also called ALK, L1196M)	311
IIIEFMTYG (also called ABL1, T315I)	779
NVVPLYGLL (also called ESR1, D538G)	10500
ILMELMAGGD (also called ALK, L1196M)	3450
B2	141
SVCFFFFCYI (also called CNOT1(-1))	520
GVYTFLPST (also called ESR1, S463P)	779

Binder	IC50 [nM]
FKLFSCLSFL (also called C15ORF40(+1))	663
MSVCFFFFSV (also called CNOT1(+1))	1710
ILMELMAGG (also called ALK, L1196M)	223
IIEFMTYGNL (also called ABL1, T315I)	9700
NVVPLCDLLL (also called ESR1, Y537C)	1370
NVVPLSDLLL (also called ESR1, Y537S)	741
NVVPLNDLLL (also called ESR1, Y537N)	4190
FFFSVIFST (also called CNOT1(+1))	4560
VLTVTSTDV (also called FGFR3: TACC3)	295
NVVPLCDLL (also called ESR1, Y537C)	3030
NVVPLSDLL (also called ESR1, Y537S)	916
NVVPLNDLL (also called ESR1, Y537N)	2900
CLADVLLSV (also called APC, AVEW)	219
PLCDLLLEM (also called ESR1, Y537C)	602
PLSDLLLEM (also called ESR1, Y537S)	404
PLNDLLLEM (also called ESR1, Y537N)	151
ALFFFFFET (also called C15ORF40(+1))	471
YIIIEFMTYG (also called ABL1, T315I)	186
FILMELMAGG (also called ALK, L1196M)	1580
TQISSATEYL (also called ABL1, M351T)	2640
AQAGVQWRSL (also called C15ORF40(+1))	670
B3	68

Molecular target: T1, HLA class I molecule A02.01
Experiment: pMHC-I dissociation half-life, 125I-b2m
Procedure: as §2

Binder	Stability (T1/2 (h)) [h]
LLPIPPLSPS (also called MYC, T58I)	0
